# Data from patent US20180312564A1 (VERSITECH, published 2018).
# T1: human PD-L2 (human, UniProt Q9BQ51 20-273)
# T1 construct: whole, on cells; also called CD273; B7-DC
# T1 sequence (looked up): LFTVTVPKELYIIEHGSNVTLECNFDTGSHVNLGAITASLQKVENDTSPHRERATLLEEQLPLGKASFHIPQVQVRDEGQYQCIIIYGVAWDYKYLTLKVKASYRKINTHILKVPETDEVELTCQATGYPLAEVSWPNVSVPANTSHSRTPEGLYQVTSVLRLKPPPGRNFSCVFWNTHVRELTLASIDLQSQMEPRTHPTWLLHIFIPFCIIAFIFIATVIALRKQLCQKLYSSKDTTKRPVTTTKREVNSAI
# Experiments:
# human PD-L1 = target: T2, human PD-L1 (human, UniProt Q9NZQ7 19-290); assay: flow cytometry on 293T cells transfected with human PD-L1, anti-rabbit Fc detection
# T2 construct: whole, on cells; also called CD274; B7-H1
# T2 sequence (Q9NZQ7 19-290): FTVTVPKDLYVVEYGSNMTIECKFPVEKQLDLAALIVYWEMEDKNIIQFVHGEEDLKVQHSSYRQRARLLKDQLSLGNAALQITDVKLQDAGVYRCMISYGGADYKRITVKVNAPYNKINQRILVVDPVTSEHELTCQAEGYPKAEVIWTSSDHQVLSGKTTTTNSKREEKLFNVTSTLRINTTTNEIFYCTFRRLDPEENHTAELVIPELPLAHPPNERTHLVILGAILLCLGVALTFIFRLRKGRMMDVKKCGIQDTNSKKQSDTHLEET
# Method: (§1) The results were analyzed by flow cytometry using a detection antibody against rabbit Fc (color lines) or isotype control (black line). […] Percentage of cells with positive staining (solid line) is shown with corresponding antibodies and isotype control (shaded). Data are representative of three independent experiments.
# human PD-L2 = target: T1, human PD-L2; assay: flow cytometry on 293T cells transfected with human PD-L2, anti-rabbit Fc detection
# Method: as §1
binder,measurement,setting,value
sΔ42PD1Fc (soluble Δ42PD1 fused with the rabbit IgG Fc domain) (Fc fusion) LALLVVTEGDNATFTCSFSNTSESFVLNWYRMSPSNQTDKLAAFPEDRSQPGQDCRFRVTQLPNGRDFHMSVVRARRNDSGTYLCGAISLAPKAQIKESLRAELRVTERRAEVPTAHPSPSPRPAGQLEATNTKVDKTVAPSTCSKPMCPPPELLGGPSVFIFPPKPKDTLMISRTPEVTCVVVDVSQDDPEVQFTWYINNEQVRTARPPLREQQFNSTIRVVSTLPIAHQDWLRGKEFKCKVHNKALPAPIEKTISKARGQPLEPKVYTMGPPREELSSRSVSLTCMINGFYPSDISVEWEKNGKAEDNYKTTPTVLDSDGSYFLYSKLSVPTSEWQRGDVFTCSVMHEALHNHYTQKSISHSPGK,binding result,human PD-L1,"no binding (tested: 0.5, 2, 5 and 20 µg/ml)"
same,binding result,human PD-L2,"no binding (tested: 0.5, 2, 5 and 20 µg/ml)"
